Results as given in patent US20190142971A1, “FORMULATION AND DELIVERY OF MODIFIED NUCLEOSIDE, NUCLEOTIDE, AND NUCLEIC ACID COMPOSITIONS” (ModernaTX, Inc., priority 2013, published 2019).

How the values were obtained:
Assay type in all cases: in vivo
mice = assay: Example 42B: EPO mRNA dose response IM in mice (Table 68)
Experimental: The mice were bled at 13 hours after the injection to determine the concentration of the human polypeptide in serum in pg/mL.

[1] = tested on: non-human primates (cynomolgus monkey); assay: Example 21: LNP IV in non-human primates, serum EPO/G-CSF ELISA (Table 37); conditions: for protein expression detectable out to: NHP IV
Experimental: Formulations, listed in Table 33, were characterized by particle size, zeta potential, and encapsulation.
LNP formulations, shown in Table 33 (above), were administered to non-human primates (NHP) (cynomolgus monkey) (n=2) as a bolus intravenous injection (IV) over approximately 30 seconds using a hypodermic needle, which may be attached to a syringe/abbocath or butterfly if needed. The NHP were administered a single modified mRNA IV dose of 0.05 mg/kg of EPO or G-CSF or 0.005 mg/kg of EPO in a dose volume of 0.5 mL/kg. The NHPs were bled 5-6 days before dosing with the modified mRNA LNP formulations to determine protein expression in the serum and a baseline complete blood count. After administration with the modified mRNA formulation the NHP were bled at 8, 24, 48 and 72 hours to determined protein expression. At 24 and 72 hours after administration the complete blood count of the NHP was also determined. Protein expression of G-CSF and EPO was determined by ELISA. Urine from the NHPs was collected over the course of the entire experiment and analyzed to evaluate clinical safety. Samples were collected from the NHPs after they were administered with G-CSF or EPO modified mRNA formulations to determine protein expression using ELISA. Clinical chemistry, hematology, urinalysis and cytokines of the non-human primates were also analyzed.

[2] = tested on: non-human primates (cynomolgus monkey); assay: Example 22: LNP IV in non-human primates, serum G-CSF/EPO ELISA (Tables 38, 39)
Experimental: LNP formulations, shown in Table 33 (above), were administered to non-human primates (NHP) (cynomolgus monkey) (n=2) as intravenous injection (IV). The NHP were administered a single modified mRNA IV dose of 0.5 mg/kg, 0.05 mg/kg or 0.005 mg/kg of G-CSF or EPO in a dose volume of 0.5 mL/kg. The NHPs were bled before dosing with the modified mRNA LNP formulations to determine protein expression in the serum and a baseline complete blood count. After administration with the G-CSF modified mRNA formulation the NHP were bled at 8, 24, 48 and 72 hours to determined protein expression. After administration with the EPO modified mRNA formulation the NHP were bled at 8, 24, 48, 72 hours and 7 days to determined protein expression.
Samples collected from the NHPs after they were administered with G-CSF or EPO modified mRNA formulations were analyzed by ELISA to determine protein expression. Neutrophil and reticulocyte count was also determined pre-dose, 24 hours, 3 days, 7 days, 14 days and 18 days after administration of the modified G-CSF or EPO formulation.

[3] = Dose Vol. (μl/mouse) 100, 13 hours

Luciferase: luciferase mRNA, SEQ ID NO: 14, Cap1, fully modified with 5-methylcytosine and pseudouridine
Average Protein Product, serum (mice; [3]): 0.0 pg/mL

B1: EPO: modified mRNA encoding human erythropoietin, SEQ ID NO: 7, Cap1, fully modified with 5-methylcytosine and pseudouridine; LNP NPA-060-1 in Examples 17-22 (nucleic acid)
chain: GGGAAAUAAGAGAGAAAAGAAGAGUAAGAAGAAAUAUAAGAGCCACCAUGGGAGUGCACGAGUGUCCCGCGUGGUUGUGGUUGCUGCUGUCGCUCUUGAGCCUCCCACUGGGACUGCCUGUGCUGGGGGCACCACCCAGAUUGAUCUGCGACUCACGGGUACUUGAGAGGUACCUUCUUGAAGCCAAAGAAGCCGAAAACAUCACAACCGGAUGCGCCGAGCACUGCUCCCUCAAUGAGAACAUUACUGUACCGGAUACAAAGGUCAAUUUCUAUGCAUGGAAGAGAAUGGAAGUAGGACAGCAGGCCGUCGAAGUGUGGCAGGGGCUCGCGCUUUUGUCGGAGGCGGUGUUGCGGGGUCAGGCCCUCCUCGUCAACUCAUCACAGCCGUGGGAGCCCCUCCAACUUCAUGUCGAUAAAGCGGUGUCGGGGCUCCGCAGCUUGACGACGUUGCUUCGGGCUCUGGGCGCACAAAAGGAGGCUAUUUCGCCGCCUGACGCGGCCUCCGCGGCACCCCUCCGAACGAUCACCGCGGACACGUUUAGGAAGCUUUUUAGAGUGUACAGCAAUUUCCUCCGCGGAAAGCUGAAAUUGUAUACUGGUGAAGCGUGUAGGACAGGGGAUCGCUGAUAAGCUGCCUUCUGCGGGGCUUGCCUUCUGGCCAUGCCCUUCUUCUCUCCCUUGCACCUGUACCUCUUGGUCUUUGAAUAAAGCCUGAGUAGGAAG
modifications: Cap1, 5-methylcytosine, pseudouridine
Average Serum Concentration ([1]; 0.005 mg/kg IV, 8 hours): 387 pg/mL
Female NHP Serum Concentration ([1]; 0.005 mg/kg IV, 8 hours): 523 pg/mL
Male NHP Serum Concentration ([1]; 0.005 mg/kg IV, 8 hours): 250 pg/mL
Average Serum Concentration ([1]; 0.005 mg/kg IV, 24 hours): 208 pg/mL
Female NHP Serum Concentration ([1]; 0.005 mg/kg IV, 24 hours): 302 pg/mL
Male NHP Serum Concentration ([1]; 0.005 mg/kg IV, 24 hours): 113 pg/mL
Average Serum Concentration ([1]; 0.005 mg/kg IV, 48 hours): <7.8 pg/mL
Female NHP Serum Concentration ([1]; 0.005 mg/kg IV, 48 hours): <7.8 pg/mL
Male NHP Serum Concentration ([1]; 0.005 mg/kg IV, 48 hours): <7.8 pg/mL
Average Serum Concentration ([1]; 0.005 mg/kg IV, 72 hours): 0 pg/mL
Female NHP Serum Concentration ([1]; 0.005 mg/kg IV, 72 hours): 0 pg/mL
Male NHP Serum Concentration ([1]; 0.005 mg/kg IV, 72 hours): 0 pg/mL
Average Serum Concentration ([1]; 0.005 mg/kg IV, Pre-bleed): 0 pg/mL
Female NHP Serum Concentration ([1]; 0.005 mg/kg IV, Pre-bleed): 0 pg/mL
Male NHP Serum Concentration ([1]; 0.005 mg/kg IV, Pre-bleed): 0 pg/mL
Average Serum Concentration ([1]; 0.05 mg/kg IV, 8 hours): 13,465 pg/ml
Female NHP Serum Concentration ([1]; 0.05 mg/kg IV, 8 hours): 19,858 pg/ml
Male NHP Serum Concentration ([1]; 0.05 mg/kg IV, 8 hours): 7,072 pg/ml
Average Serum Concentration ([1]; 0.05 mg/kg IV, 24 hours): 11,546 pg/ml
Female NHP Serum Concentration ([1]; 0.05 mg/kg IV, 24 hours): 18,178 pg/ml
Male NHP Serum Concentration ([1]; 0.05 mg/kg IV, 24 hours): 4,913 pg/ml
Average Serum Concentration ([1]; 0.05 mg/kg IV, 48 hours): 2,895 pg/ml
Female NHP Serum Concentration ([1]; 0.05 mg/kg IV, 48 hours): 5,291 pg/ml
Male NHP Serum Concentration ([1]; 0.05 mg/kg IV, 48 hours): 498 pg/mL
Average Serum Concentration ([1]; 0.05 mg/kg IV, 72 hours): 402 pg/mL
Female NHP Serum Concentration ([1]; 0.05 mg/kg IV, 72 hours): 744 pg/mL
Male NHP Serum Concentration ([1]; 0.05 mg/kg IV, 72 hours): 60 pg/mL
Average Serum Concentration ([1]; 0.05 mg/kg IV, Pre-bleed): 0 pg/mL
Female NHP Serum Concentration ([1]; 0.05 mg/kg IV, Pre-bleed): 0 pg/mL
Male NHP Serum Concentration ([1]; 0.05 mg/kg IV, Pre-bleed): 0 pg/mL
protein expression detectable out to ([1]; 0.005 mg/kg): 48 h
protein expression detectable out to ([1]; 0.05 mg/kg): 72 h
Average Protein Product, serum (mice; Dose Vol. (μl/mouse) 1, 13 hours): 2.6 pg/mL
Average Protein Product, serum (mice; Dose Vol. (μl/mouse) 10, 13 hours): 25.9 pg/mL
Average Protein Product, serum (mice; Dose Vol. (μl/mouse) 25, 13 hours): 18.7 pg/mL
Average Protein Product, serum (mice; Dose Vol. (μl/mouse) 50, 13 hours): 63.5 pg/mL
Average Protein Product, serum (mice; [3]): 96.2 pg/mL
Female NHP Serum G-CSF / EPO Concentration ([2]; 0.005 mg/kg IV, 8 hours): 523 pg/mL
Male NHP Serum G-CSF / EPO Concentration ([2]; 0.005 mg/kg IV, 8 hours): 250 pg/mL
Female NHP Serum G-CSF / EPO Concentration ([2]; 0.005 mg/kg IV, 24 hours): 302 pg/mL
Male NHP Serum G-CSF / EPO Concentration ([2]; 0.005 mg/kg IV, 24 hours): 113 pg/mL
Female NHP Serum G-CSF / EPO Concentration ([2]; 0.005 mg/kg IV, 48 hours): 11 pg/mL
Male NHP Serum G-CSF / EPO Concentration ([2]; 0.005 mg/kg IV, 48 hours): 29 pg/mL
Female NHP Serum G-CSF / EPO Concentration ([2]; 0.005 mg/kg IV, 72 hours): <7.8 pg/mL
Male NHP Serum G-CSF / EPO Concentration ([2]; 0.005 mg/kg IV, 72 hours): <7.8 pg/mL
Female NHP Serum G-CSF / EPO Concentration ([2]; 0.005 mg/kg IV, 7 days): <7.8 pg/mL
Male NHP Serum G-CSF / EPO Concentration ([2]; 0.005 mg/kg IV, 7 days): <7.8 pg/mL
Female NHP Serum G-CSF / EPO Concentration ([2]; 0.005 mg/kg IV, Pre-bleed): <7.8 pg/mL
Male NHP Serum G-CSF / EPO Concentration ([2]; 0.005 mg/kg IV, Pre-bleed): <7.8 pg/mL
Female NHP Serum G-CSF / EPO Concentration ([2]; 0.05 mg/kg IV, 8 hours): 19,858 pg/ml
Male NHP Serum G-CSF / EPO Concentration ([2]; 0.05 mg/kg IV, 8 hours): 7,072 pg/ml
Female NHP Serum G-CSF / EPO Concentration ([2]; 0.05 mg/kg IV, 24 hours): 18,187 pg/ml
Male NHP Serum G-CSF / EPO Concentration ([2]; 0.05 mg/kg IV, 24 hours): 4,913 pg/ml
Female NHP Serum G-CSF / EPO Concentration ([2]; 0.05 mg/kg IV, 48 hours): 5,291 pg/ml
Male NHP Serum G-CSF / EPO Concentration ([2]; 0.05 mg/kg IV, 48 hours): 498 pg/mL
Female NHP Serum G-CSF / EPO Concentration ([2]; 0.05 mg/kg IV, 72 hours): 744 pg/mL
Male NHP Serum G-CSF / EPO Concentration ([2]; 0.05 mg/kg IV, 72 hours): 60 pg/mL
Female NHP Serum G-CSF / EPO Concentration ([2]; 0.05 mg/kg IV, 7 days): <7.8 pg/mL
Male NHP Serum G-CSF / EPO Concentration ([2]; 0.05 mg/kg IV, 7 days): <7.8 pg/mL
Female NHP Serum G-CSF / EPO Concentration ([2]; 0.05 mg/kg IV, Pre-bleed): <7.8 pg/mL
Male NHP Serum G-CSF / EPO Concentration ([2]; 0.05 mg/kg IV, Pre-bleed): <7.8 pg/mL
Female NHP Serum G-CSF / EPO Concentration ([2]; 0.5 mg/kg IV, 8 hours): 158,771 pg/ml
Male NHP Serum G-CSF / EPO Concentration ([2]; 0.5 mg/kg IV, 8 hours): 119,086 pg/ml
Female NHP Serum G-CSF / EPO Concentration ([2]; 0.5 mg/kg IV, 24 hours): 133,978 pg/ml
Male NHP Serum G-CSF / EPO Concentration ([2]; 0.5 mg/kg IV, 24 hours): 85,825 pg/ml
Female NHP Serum G-CSF / EPO Concentration ([2]; 0.5 mg/kg IV, 48 hours): 45,250 pg/ml
Male NHP Serum G-CSF / EPO Concentration ([2]; 0.5 mg/kg IV, 48 hours): 64,793 pg/ml
Female NHP Serum G-CSF / EPO Concentration ([2]; 0.5 mg/kg IV, 72 hours): 15,097 pg/ml
Male NHP Serum G-CSF / EPO Concentration ([2]; 0.5 mg/kg IV, 72 hours): 20,407 pg/ml
Female NHP Serum G-CSF / EPO Concentration ([2]; 0.5 mg/kg IV, 7 days): <7.8 pg/mL
Male NHP Serum G-CSF / EPO Concentration ([2]; 0.5 mg/kg IV, 7 days): <7.8 pg/mL
Female NHP Serum G-CSF / EPO Concentration ([2]; 0.5 mg/kg IV, Pre-bleed): <7.8 pg/mL
Male NHP Serum G-CSF / EPO Concentration ([2]; 0.5 mg/kg IV, Pre-bleed): <7.8 pg/mL
protein expression not detected beyond ([2]; NHP IV): ≤ 7 days
